koff data for 1 molecule are collected here from article PMC3027617 (2011).

In this test the target is 2F5 epitope scaffold ES1. The experiment in a line: SPR. For orientation: Surface plasmon resonance follows binding to a sensor surface in real time, without labels.

B1: 2F5 monoclonal antibody (antibody, V domains shown)
VH: RITLKESGPPLVKPTQTLTLTCSFSGFSLSDFGVGVGWIRQPPGKALEWLAIIYSDDDKRYSPSLNTRLTITKDTSKNQVVLVMTRVSPVDTATYFCAHRRGPTTLFGVPIARGPVNAMDVWGQGITVTISS
VL: ALQLTQSPSSLSASVGDRITITCRASQGVTSALAWYRQKPGSPPQLLIYDASSLESGVPSRFSGSGSGTEFTLTISTLRPEDFATYYCQQLHFYPHTFGGGTRVDVR
With B1, the dissociation rate constant (koff) – broadly, the first-order rate constant of dissociation – came to 0.00109 s⁻¹.
